Variants at the floor of the assay were thinned out.
B1: TPR 5TU (parent)
chain: GGAUCUUCUCGAUCUAACAAAAAAGACAAAUCUGCCACAAAGCUUGAGAGCAUCUUCGGAUGCAGAGGCGGCAGCCUUCGGUGGCGCGAUAGCGCCAACGUUCUCAACUAUGACACGCAAAACGCGUGCUCCGUUGAAUGGAGUUUAUCAUG

Variants of: B1
Assay: polymerase ribozyme fitness, log enrichment relative to wild type (log ratio); higher = more active; in vitro selection for triplet polymerase activity
In short: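 For each subunit of a heterodimeric triplet polymerase ribozyme, a mutant library was built by PCR and transcribed, then taken through a single in vitro selection round in triplicate. Selection involved annealing to a biotinylated primer, the partner subunit and triplets, incubation frozen at −7 °C, gel excision of extended constructs, capture on streptavidin beads and RT-PCR. Genotypes were retained after Illumina sequencing of inputs and outputs only with ≥10 input reads and ≥1 read in each output. Fitness is defined as the logarithm of a genotype's enrichment relative to wild-type enrichment, using inverse-variance-weighted averages across replicates, with the logarithm taken to base 2.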
In the case of GGAUCUUCUCGAUCUAACAAAAAAGACAAAUCUGCCACAAAGCUUGAGAGCAUCGUCGGAUGCAGAGGCGGCAGCCUUCGGAGUCGCGAUAGCGCCAACGUCCUCAACUAUGACACGCAAAACGCGUGCUCCGUUGAAUGGAGUUUAUCAUG, the “polymerase ribozyme fitness (log ratio)” value is reported as -3.21. For GGAUCUUCUCGAUCUAACAAAAGAGACAAAUCUGCCACAAAGCUUGAGAGCAUCUUCGUAUGCAGAGGCGGCAGGCUUCGGUGGCGCGACAGCGCCAACGUUCUCAACUAUGACACGCAAAACGCGUGAUCCGUUGAAUGGAGUUUAUCAUG, the “polymerase ribozyme fitness (log ratio)” value was no more than -4.2. In the case of GGAUCUUCUCGAUCUAACAAAAAAGACAAAUCUGCCACAUAGCUUGAGAGCAUCUUCGGAUGCAGAGGCGGCAGCCUUCGGUGGCGCGAUAGUGCCAACGUUCUCAACUAUGACACGCAAAACGCGUGCUCCGUUGAAUGGAGUUUAUCAUG, the “polymerase ribozyme fitness (log ratio)” value is reported as -0.794. For GGAUCUUCUCGAUCUAACUAAAAAGAUAAAUCUGCCACAAAGCUUGUGAUCAUCUUCGGAUGCAGAGGCGGCAGCCUUGGGUGGCGCGAUAGGGCCAACGUUCUCAACUAUGACACGCAAAACGCGUGCUCCGUUGAAUGAAGUGUAUCAUG, the “polymerase ribozyme fitness (log ratio)” value was no more than -4.2. For GGAUCUUCUCGAUAUAAGAAAAAAGACAAAUCUGCCACAACACUUGAGAGCAUCUUCGCAUGCAGAGACGGCAGCCUUCGGUGGCGCGAUAGCGUCAACGUUCUCAACUAUGACACGCAAAACGCGUGCUCCGUUGAAUGGAGUUUAUCAUG, the “polymerase ribozyme fitness (log ratio)” value was no more than -4.2. In the case of GGAUCUUAUCGAUCUAACAAAAAAGACAAAUCUGCCACAAAGCUUGAGAGCAUCUUCGGAUACAGAGGCGGCAGCCUUCGGUGGCGCGAUAACGCCAACGUUCUCAACUAUGACACGCAAAACGCGUGCUCCGUUGAAUGGAGUUUAUCAUG, the “polymerase ribozyme fitness (log ratio)” value is reported as no more than -4.2. In the case of GGAUCUUCUCGAUCUAACAAAAAAGACAAAUCUGCCACAAAGCUUGUGAGCAUCUUCGGAUGCAGAGGCGGCAGCCUUCGGUGGCGCGAUAGAGCCAACGUUCUCAACUAUGACACGCAAAACGCGUGCUCCGUUGAAUGGAGUUUAUCAUG, the “polymerase ribozyme fitness (log ratio)” value is reported as -2.17. In the case of GGAUCUUCUCGAUCUAACAAAAACGACAAAUCUGCCACAAAGCUUGAGAGCGUCUUCGGAUGCAGAGGCGGCAGCCUUCGGUGCCGCUAUAGCGUUAACGUGCUCAACUAUGACACGCAAAACGCGUGCUCCGUUGAAUGGAGUUUAUCAUG, the “polymerase ribozyme fitness (log ratio)” value is reported as no more than -4.2. For GGAUCUUCUCGAUCUAACAAAAAAGACAAAUCUGCCACAAAUCUUGAGAGCAUCUUCGGAUGCAGAGGCGGCAGCCUUCGGUGGCGCGAUAGAGCUAACGUUCUCAACUAUGACACGCAAAACGCGUGCUCCGUUGAAUGGAGUUUAUCAUG, the “polymerase ribozyme fitness (log ratio)” value was no more than -4.2. For GGAUCUUCUCGAUCUAACAAAAAAGACAAAUCUGCCACAAAGCUUGAGAGCAUCUUCGGAUGCAGAGGCGGCAGCCUUCGGUGGCGCGAUAGCCCCAACGUUCUCAACUAUGACACGCAAAACGCGUGCUCCGUUGAAUGGAGUUUAUCGUG, the “polymerase ribozyme fitness (log ratio)” value was -1.6. With GGAUCUUCUCGAUCUAACAAAAAAGACAAAUCUGCCACAACGCUUGAGAGCAUUUUCGGAUGCAGAGGCGGCAGCCUUCGGUGGCGCGAUAGCGCCAACGUUCUCAACUAUGACACGCAAAACGCGUGCUCCGUUGAAUGCAGUUUAUCAUG the “polymerase ribozyme fitness (log ratio)” value was -1.43. In the case of GGAUCUUCUCGAUCUAACAAAUAAGACAAAUCUGCCACAAAGCUUGUGAGUAUCUUCGGAUGCAGAGGCGGCAGCCUUCGGUGGCGCGAUAGCGACAAUGUUCUCAACUAUGACACGCAAAACGCGUGCUCCGUUGAAUGGAGUUUAUCAUG, the “polymerase ribozyme fitness (log ratio)” value is reported as -1.72. With GGAUGUUCUCGAUCUAACAAGAAAGACAAAUCUGCCACAAAGCUUGAGAGCAUCUUGGGAUGCAGAGGCGGCAGCCUUCGGUGGCGCGAUAGUGCCAACGUUCUCAACUAUGACUCGCAAAACGCGUGCUCCGUUGAAUGGAGUUUAUCAUG the “polymerase ribozyme fitness (log ratio)” value was -3.31. In the case of GGAUCUUCUCGAUCUAACAAAAAAGACAAAUCUGCCACAAAGCUUGAGAGCAUCAUCGGAUGCAGAGACGGCAGCAUUCGGUGGCGCGAUAGCGCGAACGUUCUCAACUAUGAGACGCAAAACGCGUGCUCCAUUGAUUGGAGUUUAUCAUG, the “polymerase ribozyme fitness (log ratio)” value is reported as no more than -4.2. For GGAUCUUCUCGAUCUAACAAAAAAGACAAAUCUGCCGCAAAGCUUGAGAGCGUAUUCGGAUGCAGAGGCGGCAGCCUUCGGUGGCGCGAUAGCGCCAACGUUCUCAACUAUGACACGCAAAACGCGUGCUCCGUUGAAUGGAGUUUAUCAUG, the “polymerase ribozyme fitness (log ratio)” value was -2.77. With GGAUCUUCUCGAUCUAACAAAAAAGACAAAUCUGCCACAAAGCUUGAGAGCAUCUUCGGAUGCAAAGGCGGCAGCCUUCGGUGGCGCGAUAGCGCUAACGUUCUCAACUAUGACACGCAAAACGCGUGCUCCGUUGAAUGGAGUUUAUCAUG the “polymerase ribozyme fitness (log ratio)” value was -1.03. With GGAUCUUCUCGAUCUAACAAAAAAGACAAAUCUGCCACAAAGCUUGAGAGAAUCGUCGGAUGCAGAGGCGGCAGCCUUCGGUGGCGCCAUAGCGACAACGUUCUCAACUAUGACACGCCAAACGCGUGCUCCGUUGAAUGGAGUUUAUCAUG the “polymerase ribozyme fitness (log ratio)” value was no more than -4.2. With GGAUCUACUCGAUCUAACAAAAAAGACAAAUCUGCCACACAGCUUGAGAGCAUAUUCGCAUGCAGAGGCGGCAGCCUUCGGUGGCGUGAUAGCGCCAACGUUCUCAACUAUGACACGCAAAACGCGUGCUCCGUUGAAUGGAGUUUAUCAUG the “polymerase ribozyme fitness (log ratio)” value was no more than -4.2. With GGAUCUUCUCGAUCUAACAAAAAAGACAAAUCUGCCACAAAGCUUGGGAGCAUCUUCGGAUGCACAGGCGGCAGCCUUCGGUGGCGCGAUAGCGCCAACGUUCUCGACUAUGACACGCAGAACGCGUGCUCCGUUGAAUGGAGUUUAUCAUG the “polymerase ribozyme fitness (log ratio)” value was -4.14.
